Assay [1] addresses T1, pentameric C-reactive protein (human), P02741.
T1 chain: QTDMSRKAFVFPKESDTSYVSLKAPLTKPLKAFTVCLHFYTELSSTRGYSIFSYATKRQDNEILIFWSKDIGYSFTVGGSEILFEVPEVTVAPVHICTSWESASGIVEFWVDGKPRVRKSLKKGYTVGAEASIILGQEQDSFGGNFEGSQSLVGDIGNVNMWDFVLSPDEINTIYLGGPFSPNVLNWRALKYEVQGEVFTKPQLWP
The assay can be described thus: native gel or EMSA; BN-PAGE (4-16% Bis-Tris) of pCRP (40 ug/ml) pelleted with liposomes or microvesicles after 1 h at 37 °C in 25 mM Tris-HCl pH 7.4, 150 mM NaCl, 2 mM CaCl2; pCRP and mCRP controls beside it. The note with it: remark: other sources report otherwise.

Assay [2] concerns the target T2, tissue-deposited CRP (human (endogenous in burn wound, skeletal muscle and carotid plaque tissue)), P02741.
T2 chain: T1 chain
The assay can be described thus: native gel or EMSA; SDS-PAGE with 1/20 of the usual SDS content (8-13% gels), burn wound lysates loaded in native buffer; control pCRP and mCRP beside them; Western blot with anti-CRP-8. The note with it: remark: other sources report otherwise. (Mobility shift assays separate free from complexed probe on a gel.)

As usually defined, the stoichiometry N is a count of units in the complex or per binding partner.

B1: pentameric C-reactive protein, P02741 19-224 (natural protein)
chain: T1 chain
As for B1, in assay [1], the stoichiometry N was 5.

B2: tissue-deposited CRP, P02741 19-224 (natural protein)
chain: T1 chain
Regarding B2, the stoichiometry N in assay [2] amounted to 5.

The values above are taken from publication PMC5264208.
